From the RNAGym collection of RNA variant scans (doi:10.7554/elife.80360)

B1: Hairpin Ribozyme (parent)
chain: GUCCUCUUUCACGUGCGCGUGAAAGAGAGAAGUGAACCAGAGAAACACACGUUGUGGUAUAUUACCUGGUA

Variants of: B1
Experiment: self-cleavage, relative activity (ratio to wild type); higher = more cleavage; co-transcriptional

Row | Variant | self-cleavage
1 | GUCCUCUUUCACGUGCGCGUGAAGGAGAGAAGUGAACCAGAGAAACACACGUUGUGGUAGAUUACCUGGUA | 0.661
2 | GUCCUCUUUCACGUGCGCGUGAAGGAGAGAAGUGAACCAGAGAAACACACGUUGUGGUAAAUUACCUGGUA | 0.861
3 | GUCCUCUUUCACGUGCGCGUGAAGGAGAGAAGUCAACCAGAGAAACACACGUUGUGGUAUAUUACCUGGUA | 1.34
4 | GUCCUCUUUCACGUGCGCGUGAAGGAGAGAAGUUAACCAGAGAAACACACGUUGUGGUAUAUUACCUGGUA | 0.956
5 | GUCCUCUUUCACGUGCGCGUGAAGGAGAGAAGUAAACCAGAGAAACACACGUUGUGGUAUAUUACCUGGUA | 0.862
6 | GUCCUCUUUCACGUGCGCGUGAAUGAGAGAAGUGAACCAGAGAGACACACGUUGUGGUAUAUUACCUGGUA | 0.119
7 | GUCCUCUUUCACGUGCGCGUGAAUGAGAGAAGUGAACCAGAGACACACACGUUGUGGUAUAUUACCUGGUA | 0.252
8 | GUCCUCUUUCACGUGCGCGUGAAGGAGAGAAGUGAACCAGAGAAACACACGUGGUGGUAUAUUACCUGGUA | 0.591
9 | GUCCUCUUUCACGUGCGCGUGAAUGAGAGAAGUGAACCAGCGAAACACACGUUGUGGUAUAUUACCUGGUA | 1.1
10 | GUCCUCUUUCACGUGCGCGUGAAUGAGAGAAGUGAACCAGUGAAACACACGUUGUGGUAUAUUACCUGGUA | 1.17
11 | GUCCUCUUUCACGUGCGCGUGAAGGAUAGAAGUGAACCAGAGAAACACACGUUGUGGUAUAUUACCUGGUA | 0.303
12 | GUCCUCUUUCACGUGCGCGUGAAGGAGAGAGGUGAACCAGAGAAACACACGUUGUGGUAUAUUACCUGGUA | 0.662
13 | GUCCUCUUUCACGUGCGCGUGAAGGAGAGCAGUGAACCAGAGAAACACACGUUGUGGUAUAUUACCUGGUA | 0.119
14 | GUCCUCUUUCACGUGCGCGUGAAGGAGAGUAGUGAACCAGAGAAACACACGUUGUGGUAUAUUACCUGGUA | 0.124
15 | GUCCUCUUUCACGUGCGCGUGAACGAGAGAAGUGAACCAGAGAAACACACGUUGUGGUAUAAUACCUGGUA | 0.3
16 | GUCCUCUUUCACGUGCGCGUGAACGAGAGAAGUGAACCAGAGAAACACACGUUGUGGUAUACUACCUGGUA | 0.297
17 | GUCCUCUUUCACGUGCGCGUGAAGGAGAGAAGUGAACCAGAGAAACACACGUUGUCGUAUAUUACCUGGUA | 0.14
18 | GUCCUCUUUCACGUGCGCGUGAAGGAGAGAAGUGAACCAGAGAAACACACGUUGUUGUAUAUUACCUGGUA | 0.122
19 | GUCCUCUUUCACGUGCGCGUGAAGGAGAGAACUGAACCAGAGAAACACACGUUGUGGUAUAUUACCUGGUA | 0.242
20 | GUCCUCUUUCACGUGCGCGUGAAGGAGAGAAAUGAACCAGAGAAACACACGUUGUGGUAUAUUACCUGGUA | 0.14
21 | GUCCUCUUUCACGUGCGCGUGAAGGAGAGAAUUGAACCAGAGAAACACACGUUGUGGUAUAUUACCUGGUA | 0.0918
22 | GUCCUCUUUCACGUGCGCGUGAAGGAGAGAAGUGAACCAGAGAAACACACGUUGUGUUAUAUUACCUGGUA | 0.307
23 | GUCCUCUUUCACGUGCGCGUGAAGGAGAGAAGUGAACCAGAGAAACACACGUUGUGGGAUAUUACCUGGUA | 0.517
24 | GUCCUCUUUCACGUGCGCGUGAAGGAGAGAAGUGAACCAGAGAAACACACGUUGUGGAAUAUUACCUGGUA | 0.628
25 | GUCCUCUUUCACGUGCGCGUGAAGGAGAGAAGUGAACCAGAGAAACACACGUUGUGGCAUAUUACCUGGUA | 0.804
26 | GUCCUCUUUCACGUGCGCGUGAACGAGAGAAGUGAACCAGAGAAACACACGCUGUGGUAUAUUACCUGGUA | 0.872

Row | Variant | self-cleavage
27 | GUCCUCUUUCACGUGCGCGUGAAUGAGAGAAGUGAACCUGAGAAACACACGUUGUGGUAUAUUACCUGGUA | 0.38
28 | GUCCUCUUUCACGUGCGCGUGAACGAGAGAAGUGAACCAGAGAAACACACGUUGUGGUAUAUUACCUGGAA | 0.985
29 | GUCCUCUUUCACGUGCGCGUGAACGAGAGAAGUGAACCAGAGAAACACACGUUGUGGUAUAUUACCAGGUA | 0.185
30 | GUCCUCUUUCACGUGCGCGUGAACGAGAGAAGUGAACCAGAGAAACACACGUUGUGGUAUAUUACCGGGUA | 0.27
31 | GUCCUCUUUCACGUGCGCGUGAAGGAGAGAAGUGAACCAGAGAAACACACGUUGUGGUAUAUUGCCUGGUA | 0.533
32 | GUCCUCUUUCACGUGCGCGUGAAGGAGAGAAGUGAACCAGAGAAACACACGUUGUGGUAUAUUACCUGCUA | 0.238
33 | GUCCUCUUUCACGUGCGCGUGAAUGAGAGAAGUGAACCAGAGAACCACACGUUGUGGUAUAUUACCUGGUA | 0.179
34 | GUCCUCUUUCACGUGCGCGUGAAGGAGAGAAGUGAACCAGAGAAACACACGCUGUGGUAUAUUACCUGGUA | 0.762
35 | GUCCUCUUUCACGUGCGCGUGAAGGAGAGAAGUGAACCAGAGAAACACACGGUGUGGUAUAUUACCUGGUA | 0.687
36 | GUCCUCUUUCACGUGCGCGUGAAGGAGAGAAGUGAACCAGAGAAACACACGUUGUGGUAUCUUACCUGGUA | 0.203
37 | GUCCUCUUUCACGUGCGCGUGAAGGAGAGAAGUGAACCAGAGAAACAAACGUUGUGGUAUAUUACCUGGUA | 0.191
38 | GUCCUCUUUCACGUGCGCGUGAAGGAGAGAAGUGAACCAGAGAAACACACGUUGUGGUAUAUUACCUGGGA | 0.834
39 | GUCCUCUUUCACGUGCGCGUGAAGGAGAGAAGUGAACCAGAGAAAGACACGUUGUGGUAUAUUACCUGGUA | 0.105
40 | GUCCUCUUUCACGUGCGCGUGAAGGAGAGAAGUGAACCAGAGAAAAACACGUUGUGGUAUAUUACCUGGUA | 0.107
41 | GUCCUCUUUCACGUGCGCGUGAAGGAGAGAAGUGAACCAGAGCAACACACGUUGUGGUAUAUUACCUGGUA | 0.19
42 | GUCCUCUUUCACGUGCGCGUGAAGGAGAGAAGUGAACCAGAGUAACACACGUUGUGGUAUAUUACCUGGUA | 0.104
43 | GUCCUCUUUCACGUGCGCGUGAAGGAGAGAAGUGAACCAGAGAAACACACGUUGUGGUAUAUUACCCGGUA | 0.222
44 | GUCCUCUUUCACGUGCGCGUGAAGGAGAGAAGUGAACCAGAGAAACACACGUUGUGGUAUAUUACCGGGUA | 0.263
45 | GUCCUCUUUCACGUGCGCGUGAAGGAGAGAAGUGAACCUGAGAAACACACGUUGUGGUAUAUUACCUGGUA | 0.473
46 | GUCCUCUUUCACGUGCGCGUGAACGAGAGAAGUGAACCAGAGAAACACACGUUGUGGAAUAUUACCUGGUA | 0.265
47 | GUCCUCUUUCACGUGCGCGUGAACGAGAGAAGUGAACCAGAGAAACACACGUUGUGGGAUAUUACCUGGUA | 0.761
48 | GUCCUCUUUCACGUGCGCGUGAAGGAGAGAAGUGAACCAGAGAAACACACGUUGUGGUAUAUUAGCUGGUA | 0.296
49 | GUCCUCUUUCACGUGCGCGUGAAGGAGAGAAGUGAACUAGAGAAACACACGUUGUGGUAUAUUACCUGGUA | 0.31
50 | GUCCUCUUUCACGUGCGCGUGAACGAGAGAAGGGAACCAGAGAAACACACGUUGUGGUAUAUUACCUGGUA | 0.152
51 | GUCCUCUUUCACGUGCGCGUGAAUGAGAGAAGUGGACCAGAGAAACACACGUUGUGGUAUAUUACCUGGUA | 0.751
52 | GUCCUCUUUCACGUGCGCGUGAACGAGAGAAGUGAACCAGAGAAACACACGUUGGGGUAUAUUACCUGGUA | 0.266

Row | Variant | self-cleavage
53 | GUCCUCUUUCACGUGCGCGUGAAGGAGAGAAGUGAACCAGAGAAACACACGUUGUGGUAUAUUACCUGGUU | 0.667
54 | GUCCUCUUUCACGUGCGCGUGAAGGAGAGAAGUGAACCAGAGAAACACACGUUGUGGUAUAUUACCUGGUG | 1.07
55 | GUCCUCUUUCACGUGCGCGUGAAGGAGAGAAGUGAACCAGUGAAACACACGUUGUGGUAUAUUACCUGGUA | 1.05
56 | GUCCUCUUUCACGUGCGCGUGAAGGAGAGAAGUGAACCAGAGAAACACACGUUGUGGUAUAUGACCUGGUA | 0.154
57 | GUCCUCUUUCACGUGCGCGUGAAUGAGAGCAGUGAACCAGAGAAACACACGUUGUGGUAUAUUACCUGGUA | 0.332
58 | GUCCUCUUUCACGUGCGCGUGAAUGAGAGUAGUGAACCAGAGAAACACACGUUGUGGUAUAUUACCUGGUA | 0.168
59 | GUCCUCUUUCACGUGCGCGUGAAGGAGGGAAGUGAACCAGAGAAACACACGUUGUGGUAUAUUACCUGGUA | 0.882
60 | GUCCUCUUUCACGUGCGCGUGAAGGAGAGAAGUGAACCAGAGAAACACACGUUAUGGUAUAUUACCUGGUA | 0.387
61 | GUCCUCUUUCACGUGCGCGUGAAGGAGAGAAGUGAACCAGAGAAACACACGUUUUGGUAUAUUACCUGGUA | 0.607
62 | GUCCUCUUUCACGUGCGCGUGAAGGAGAGAAGUGAACCAGAGAAACACACGUUGUGGUAUAAUACCUGGUA | 0.316
63 | GUCCUCUUUCACGUGCGCGUGAAGAAGAGAAGUGAACCAGAGAAACACACGUUGUGGUAUAUUACCUGGUA | 0.591
64 | GUCCUCUUUCACGUGCGCGUGAAGCAGAGAAGUGAACCAGAGAAACACACGUUGUGGUAUAUUACCUGGUA | 0.668
65 | GUCCUCUUUCACGUGCGCGUGAAUGAGAGAAGUGACCCAGAGAAACACACGUUGUGGUAUAUUACCUGGUA | 0.517
66 | GUCCUCUUUCACGUGCGCGUGAAGGAGAGAAGUGAACCAGAGAAACACACGUUGUGGUCUAUUACCUGGUA | 0.213
67 | GUCCUCUUUCACGUGCGCGUGAAGGAGAGAAGUGAACCAGAGAAACACACGUUGUGGUUUAUUACCUGGUA | 0.153
68 | GUCCUCUUUCACGUGCGCGUGAACGAGAGAAGUGAACCAGAGAAACACACGUCGUGGUAUAUUACCUGGUA | 0.735
69 | GUCCUCUUUCACGUGCGCGUGAACGAGAGAAGUGAACCAGAGAAACACACGUAGUGGUAUAUUACCUGGUA | 1.08
70 | GUCCUCUUUCACGUGCGCGUGAACGAGAGAAGUGAACCAGAGAAACACACGUUGUGGUAUAUUACCUUGUA | 0.223
71 | GUCCUCUUUCACGUGCGCGUGAACGAGAGAAGUGAACCAGAGAAACACACGUUGUGGUAUAUUACCUCGUA | 0.255
72 | GUCCUCUUUCACGUGCGCGUGAAUGAGAGAAGUGAACCAGAGGAACACACGUUGUGGUAUAUUACCUGGUA | 0.159
73 | GUCCUCUUUCACGUGCGCGUGAAGGAGAGAAGUGAUCCAGAGAAACACACGUUGUGGUAUAUUACCUGGUA | 0.397
74 | GUCCUCUUUCACGUGCGCGUGAAGGAGAGAAGUGAAUCAGAGAAACACACGUUGUGGUAUAUUACCUGGUA | 0.294
75 | GUCCUCUUUCACGUGCGCGUGAAGGAGAGAAGUGAAACAGAGAAACACACGUUGUGGUAUAUUACCUGGUA | 0.345
76 | GUCCUCUUUCACGUGCGCGUGAAGGAGAGAAGUGAAGCAGAGAAACACACGUUGUGGUAUAUUACCUGGUA | 0.359
